Experimental data published in patent publication US20220356230A1 (published 2022).
Positions count from the first letter of the chain named.

B1: mAb10986 (antibody, V domains shown)
VH: EVQLVESGGGLVQPGGSLRLSCAASEFTVSSNYMSWVRQAPGKGLEWVSVIYSGGSTFYADSVKGRFTISRDNSKNTLYLQMNSLRAEDTAVYYCARALPYGDLHFDYWGQGTLVTVSS
VL: QSVLTQPPSVSGAPGQRVTISCTGSSSNIGTGYDVHWYQQLPGTAPKLLIYGNTNRPSGVPDRFSGSKSGTSASLAITGLQAEDEADYYCQSYDSSLSDSYVFGTGTKVTVLG
B2: mAb10989 (antibody, V domains shown)
VH: QVQLVQSGAEVKKPGASVKVSCKASGYIFTGYYMHWVRQAPGQGLEWMGWINPNSGGANYAQKFQGRVTLTRDTSITTVYMELSRLRFDDTAVYYCARGSRYDWNQNNWFDPWGQGTLVTVSS
VL: QSALTQPASVSGSPGQSITISCTGTSSDVGTYNYVSWYQQHPGKAPKLMIFDVSNRPSGVSDRFSGSKSGNTASLTISGLQAEDEADYYCSSFTTSSTVVFGGGTKLTVLG
B3: mAb10956 (antibody, V domains shown)
VH: EVQLVESGGGLVQPGGSLRLSCAASGLTVSSNYMSWVRQAPGKGLEWVSVIYSGGSTFYADSVKGRFTISRDNSKNTLYLQMNSLRAEDTAVYYCARDLIKYGMDVWGQGTTVTVSS
VL: not shown
B4: mAb10971 (antibody, V domains shown)
VH: B3 VH with V12I, L27V, A60S, T68S, I100Y, K101Y
VL: DIQLTQSPSFLSASVGDRVTITCRASQGISTYLAWYQQKPGKAPKLLIYAASTLQSGVPSRFSGSGSGTEFTLTISSLQPEDFATYYCQQLDSYPGLTFGGGTKVEIKR
B5: mAb10957 (antibody, V domains shown)
VH: B3 VH with L27V, Y79F, A87I, I100G, K101P
VL: B4 VL with T31S, E70Q, T72I, D92N, L97F, G101P, E106D
B6: mAb10964 (antibody, V domains shown)
VH: QVQLQESGPGLVKPSETLSLTCTVSGGSINNYYWIWIRQPPGKGLEWIGYIYHSGSTNYNPSLKSRVTISVDTSKNQFSLKVSSVTAADTAVYYCANMVRGVYEDDYWGQGTLVTVSS
VL: DIQMTQSPSSLSASVGDRVTITCRASQSISNYLNWYQQKPGKAPKLLIFAASSLRSGVPSRFSGSGSGTDFTLTISSLHPEDFATYYCQQNYNTPLTFGPGTKVDIKR
B7: mAb10954 (antibody, V domains shown)
VH: EVQLVESGGGLVQPGGSLRLSCAASGITVSSNYMSWVRQAPGKGLEWVSLIYSGGSTYYADSVKGRFTISRDNSKNTLYLQMNSLRVEDTAVYYCARDHGMAAAGYNYWGQGTLVTVSS
VL: DIQMTQSPSSLSASVGDRVTITCQASQDINKYLNWYQQKPGKAPKLLIYDASNLETGVPSRFSGSGSGTDFTFTINSLQPEDFATYFCQQYDNLPPAFGQGTKVEIKR
B8: mAb10967 (antibody, V domains shown)
VH: EVQLVESGGGLVQPGGSLRLSCAASGFTVSSNYMSWVRQAPGKGLEWVSVIYPGGSTFYADSVKGRFTISRDNSKNTLYLQMNSLRAEDTAVYYCARDQRDFAWGQGTLVTVSS
VL: B7 VL with N30S, K31N, N76S, S77G, F83I, F87Y, A97T, K103R, V104L
B9: mAb10966 (antibody, V domains shown)
VH: EVQLVESGGGLVQPGGSLRLSCAASGLTVSSNYMSWVRQAPGKGLEWVSVIYSGGSTFYADSVKGRFTISRDNSKNTLYLQMNSLRPEDTAVYYCAREGRIAATGYGMDVWGQGTTVTVSS
VL: not shown
B10: mAb10985 (antibody, V domains shown)
VH: EVQLVESGGGLVQPGRSLRLSCAASGFTFDDYAMHWVRQAPGKGLEWVSGISWNRGSIGYADSVKGRFTISRDNAKNSLYLQMSSLRAEDTALYYCAKDGERWDSVVVPSARNGMDVWGQGTTVTVSS
VL: B1 VL with T31A, T54S, D99G
B11: mAb10982 (antibody, V domains shown)
VH: EVQLVESGGGLVQPGGSLRLSCAASGLTVSSNYMSWVRQAPGKGLEWVSVIYSGGTTYYADSVKGRFTISRHNSKNTLSLQMNSLRAEDTAVYYCARGEGANYYGMDVWGQGTTVTVSS
VL: B1 VL with T54S, D99G, S100Y, Y101V, T105G, V109L
B12: mAb10930 (antibody, V domains shown)
VH: EVQLVESGGGLVQPGRSLRLSCAASGFTFDDYAMYWVRQAPGKGLEWVSGISWNSGSIGYADSVKGRFTISRDNAKNSLYLQMNSLRAADTALYYCAKDKDWNSRGYYYYGMDVWGQGTTVTVSS
VL: not shown
B13: mAb10932 (antibody, V domains shown)
VH: EVQLVESGGGLVQSGGSLRLSCAASGLTVSSNYMSWVRQAPGKGLEWVSVIYSGGSTFYSDSVKGRFTISRHNSKNTLYLQMNSLRAEDTAVYYCARARGDAFDIWGQGTMVTVSS
VL: not shown
B14: mAb10913 (antibody, V domains shown)
VH: EVQLVESGGGLVQPGGSLRLSCAASGFTFRNYEMNWVRQAPGKGLEWVSYITSSGSTMYYADSVKGRFTISRDNAKNSLYLQMNSLRAEDTAVYYCARDGFYYYYAMDVWGQGTTVTVSS
VL: QSVLTQPPSVSAAPGQKVTISCSGSSSNIGNNYVSWYQQLPGTAPKLLIYDNNKRPSGIPDRFSGSKSGTSATLGITGLQTGDEADYYCGTWDSSLSVGRVFGTGTKVTVLG
B15: mAb10939 (antibody, V domains shown)
VH: B3 VH with S35N, A40V, T57K, A60V, D72H, A87P, A96T, L99A, I100Q, K101Y
VL: DIQMTQSPSSLSASVGDRVTITCRASQSISTYLHWYQQKPGEAPKLLIYAASSLQSGVPSRFSGSGSGTDFTLTISSLQPEDFATYYCQQSYSTPPEIFGQGTKLEIKR
B16: mAb10921 (antibody, V domains shown)
VH: EVQLVESGGGLVQPGGSLRLSCAASGITVSSNYMSWVRQAPGKGLEWVSVIYSGGSTFYADSVKGRFTISRHNSKNTLYLQMNSLRAEDTAVYYCARERNFDAFDIWGQGTMVTVSS
VL: DIQMTQSPSSVSASVGDRVTITCRASQGISSWLAWYQQKPGKAPKLLIYAASSLQSGVPSRFSGSGSGTDFTLTISSLQPEDFATYYCQQANSFPLFTFGPGTKVDIKR
B17: mAb10934 (antibody, V domains shown)
VH: not shown
VL: B7 VL with N30W, K31N, L33I, E55K, N76S, F83I, F87Y, Y91H, N93D, A97T
B18: mAb10935 (antibody, V domains shown)
VH: EVQLVESGGGLVQPGGSLRLSCAASGFTVSSNYMSWVRQAPGKGLEWVSLIYSGGSTYYADSVKGRFTISRHNSKNTLYLQMNSLRSEDTAVYYCARVPLGDYYYGMDVWGQGTTVTVSS
VL: B7 VL with N76S, F83I, F87Y, Y91S, P96L, A97T, Q100G
B19: mAb10937 (antibody, V domains shown)
VH: QITLKESGPTLVKPTQTLTLTCTFSGFSLSTNVVGVGWIRQPPGKALEWLALIYWNDDKRYSPSLKSRLTITKDTSKNQVVLTMTNMDPVDTATYYCAHGPTGDYFDYWGQGTLVTVSS
VL: not shown

Biological target: SARS-CoV-2 Spike Protein (S1 Subunit, His Tag) (Sino 40591-V08H) (SARS-CoV-2, UniProt P0DTC2 16-685)
Assay: Luminex bead assay, supernatant on antigen microspheres

Binder | Binding signal (MFI)
B1 | 19100
B2 | 14200
B3 | 20000
B4 | 21600
B5 | 12000
B6 | 24200
B7 | 21300
B8 | 21900
B9 | 23300

Biological target: SARS-CoV-2 Spike Protein (S1 Subunit, Fc Tag) (Sino 40591-V02H) (SARS-CoV-2, UniProt P0DTC2 16-685)
Assay: as above

Binder | Binding signal (MFI)
B1 | 16000
B10 | 16200
B2 | 12300
B3 | 15000
B4 | 17000
B5 | 8450
B6 | 18600
B7 | 16600
B8 | 15800
B9 | 16400

Biological target: SARS-CoV-2 Spike Protein (S1 Subunit, Fc Tag) (Sino 40591-V02H) (SARS-CoV-2, UniProt P0DTC2 16-685)
Assay: Luminex bead assay, antibody supernatant, antigen on microspheres

Binder | Binding signal (MFI)
B11 | 10800
B12 | 16500
B13 | 17600
B14 | 18900
B15 | 18200
B16 | 8960
B17 | 20600
B18 | 20000
B19 | 19600

Biological target: SARS-CoV-2 Spike Protein (S1 Subunit, His Tag) (Sino 40591-V08H) (SARS-CoV-2, UniProt P0DTC2 16-685)
Assay: as above

Binder | Binding signal (MFI)
B11 | 14000
B12 | 21200
B13 | 22100
B14 | 24900
B15 | 23900
B16 | 12200
B17 | 27500
B18 | 25600
B19 | 26400
